Experiment [1] has as its target full length PfCSP (NF54 strain) (Plasmodium falciparum (NF54 strain)) (UniProt P19597).
Experiment [2] deals with minimal NANP3 peptide. In words: SPR. Conditions: parent: est. 2.1e-6 M; read off a plot.

Chain of full length PfCSP (NF54 strain) (Plasmodium falciparum (NF54 strain)) (P19597 19-374): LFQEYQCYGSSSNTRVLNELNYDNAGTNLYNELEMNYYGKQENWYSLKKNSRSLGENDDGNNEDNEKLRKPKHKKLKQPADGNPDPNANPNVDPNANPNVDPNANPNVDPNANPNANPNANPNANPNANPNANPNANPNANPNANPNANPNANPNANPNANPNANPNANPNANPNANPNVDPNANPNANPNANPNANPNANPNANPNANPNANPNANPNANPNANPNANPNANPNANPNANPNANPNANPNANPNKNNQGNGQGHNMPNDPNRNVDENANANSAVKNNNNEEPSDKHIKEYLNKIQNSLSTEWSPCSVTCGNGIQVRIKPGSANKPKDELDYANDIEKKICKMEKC

In turn, 1210_H.V50_Imut IgG (antibody) showed an other in experiment [1] of 0.16 µg/mL. For orientation: Kd means the constant that tells how readily two partners part at equilibrium. On to “2163 IgG (germline antibody 2163) H:V50I”, for which the Kd in experiment [2] was 130 nM.

As for “2163 IgG (germline antibody 2163) H:N56K; K:S93N”, the dissociation constant Kd in experiment [2] came out at 2600 nM. In turn, “2163_KN IgG (2163_H.N56_Kmut_K.S93_Nmut) (antibody)” registered an other in experiment [1] of 0.21 µg/mL. Same read-out and setting: for 2163_H.S31_Nmut IgG (antibody) the value was 0.12 µg/mL.

With “2163 IgG (germline antibody 2163) H:N56K”, the dissociation constant Kd in experiment [2] is 2600 nM.

1210_H.N31_Srev IgG (antibody) returned an other in experiment [1] of 0.14 µg/mL. 2163_H.V50_Imut IgG (antibody) came in with an other in experiment [1] of 0.16 µg/mL. In turn, 1210_H.K56_Nrev IgG (antibody) showed an other in experiment [1] of 0.14 µg/mL. The same measure, in the same setting: for 2163 IgG (germline antibody 2163) the value was 0.2 µg/mL. Consider “2163 IgG (germline antibody 2163) H:S31N”, for which the Kd in experiment [2] is 1500 nM. In turn, “1210_NS IgG (1210_H.K56_Nrev_K.N93_Srev) (antibody)” registered an other in experiment [1] of 0.17 µg/mL.

The values above are taken from publication PMC6420115.
